{"source": "patent US20050037012A1", "molecules": {"B1": {"name": "murine zcytor19-Ig homodimer soluble receptor (Fc fusion, mouse, UniProt Q8CGK5 21-227, looked up, not shown: a dimerising Fc or GST)", "chain": "RPRLAPPRNVTLFSQNFTVYLTWLPGLGSPPNVTYFVTYQSYIKTGWRPVEHCAGIKALVCPLMCLKKLNLYSKFKGRVQAASAHGRSPRVESRYLEYLFDVELAPPTLVLTQMEKILRVNATYQLPPCMPSLELKYQVEFWKEGLGSKTLFPDTPYGQPVQIPLQQGASRRHCLSARTVYTLIDIKYSQFSEPSCIFLEAPGDKRA"}, "B2": {"name": "human IL-28B (ligand)", "chain": "VPVARLRGALPDARGCHIAQFKSLSPQELQAFKRAKDALEESLLLKDCKCRSRLFPRTWDLRQLQVRERPVALEAELALTLKVLEATADTDPALGDVLDQPLHTLHHILSQLRACIQPQPTAGPRTRGRLHHWLHRLQEAPKKESPGCLEASVTFNLFRLLTRDLNCVASGDLCV"}, "B3": {"name": "human zcytor19-Fc homodimer soluble receptor (Fc fusion, not shown: a dimerising Fc or GST)", "chain": "RPRLAPPQNVTLLSQNFSVYLTWLPGLGNPQDVTYFVAYQSSPTRRRWREVEECAGTKELLCSMMCLKKQDLYNKFKGRVRTVSPSSKSPWVESEYLDYLFEVEPAPPVLVLTQTEEILSANATYQLPPCMPPLDLKYEVAFWKEGAGNKTLFPVTPHGQPVQITLQPAASEHHCLSARTIYTFSVPKYSKFSKPTCFLLEVPEANWA"}}, "test_in_all_cases": "cell-based or functional assay", "key": {"[1]": {"molecular_target": "human IL-28 receptor (IL-28 receptor alpha subunit with CRF2-4) on 293 HEK cells (human)", "sequence (Q8IU57 whole entry, chain 1 of 2)": "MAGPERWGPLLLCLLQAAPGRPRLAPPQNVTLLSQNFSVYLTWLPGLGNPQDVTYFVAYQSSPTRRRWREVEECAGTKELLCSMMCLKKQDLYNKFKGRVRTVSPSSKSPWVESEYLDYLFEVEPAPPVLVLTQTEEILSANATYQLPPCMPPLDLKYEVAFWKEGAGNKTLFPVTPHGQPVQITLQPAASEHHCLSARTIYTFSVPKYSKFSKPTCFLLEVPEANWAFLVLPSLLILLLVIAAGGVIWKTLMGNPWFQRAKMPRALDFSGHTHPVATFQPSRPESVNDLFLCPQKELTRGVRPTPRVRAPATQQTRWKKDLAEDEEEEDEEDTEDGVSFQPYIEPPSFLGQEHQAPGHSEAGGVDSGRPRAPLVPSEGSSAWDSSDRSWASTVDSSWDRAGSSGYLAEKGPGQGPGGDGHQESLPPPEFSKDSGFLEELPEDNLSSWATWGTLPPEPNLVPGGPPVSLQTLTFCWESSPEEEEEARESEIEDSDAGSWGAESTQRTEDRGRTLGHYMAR", "sequence (Q08334 whole entry, chain 2 of 2, further chain)": "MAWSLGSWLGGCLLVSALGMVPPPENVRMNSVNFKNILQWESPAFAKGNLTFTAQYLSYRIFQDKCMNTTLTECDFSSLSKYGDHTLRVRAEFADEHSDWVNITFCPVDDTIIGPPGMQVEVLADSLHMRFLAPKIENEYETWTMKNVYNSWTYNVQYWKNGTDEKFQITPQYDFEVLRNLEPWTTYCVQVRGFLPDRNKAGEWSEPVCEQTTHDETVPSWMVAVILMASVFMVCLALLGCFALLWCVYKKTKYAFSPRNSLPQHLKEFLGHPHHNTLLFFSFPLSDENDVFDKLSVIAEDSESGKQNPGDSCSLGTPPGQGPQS"}, "human IL-28A (human)": {"molecular_target": "T1, human IL-28A (human) (UniProt Q8IZJ0)", "T1 sequence": "B2 chain with R7H, K49R, R51H, V71M, G95V, L112F, H135Y"}, "human IL-29 (human)": {"molecular_target": "human IL-29 (human) (UniProt Q8IU54)", "sequence (Q8IU54 20-200)": "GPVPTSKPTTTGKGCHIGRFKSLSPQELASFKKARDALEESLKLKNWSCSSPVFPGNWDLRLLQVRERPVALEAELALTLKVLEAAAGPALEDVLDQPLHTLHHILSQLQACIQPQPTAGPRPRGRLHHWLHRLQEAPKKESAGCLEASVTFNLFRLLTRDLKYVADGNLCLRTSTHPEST"}, "[2]": {"molecular_target": "T2, mouse IL-28 (zcyto24) (mouse) (UniProt Q4VK74)", "T2 sequence": "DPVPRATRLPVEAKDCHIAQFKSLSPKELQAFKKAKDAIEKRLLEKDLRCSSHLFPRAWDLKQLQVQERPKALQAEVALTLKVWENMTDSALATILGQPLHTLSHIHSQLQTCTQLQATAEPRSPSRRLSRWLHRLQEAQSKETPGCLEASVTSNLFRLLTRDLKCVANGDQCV"}}, "note": "Where a chain is given by its changes, count along the chain named.", "data": [{"molecule": "huIL10 (from UniProt P22301 19-178) (ligand)", "values": [{"measurement": "ISRE-luciferase signaling, fold induction over medium alone; HuIL10 at 100 ng/ml; 293 cells transfected with ISRE-Luc. and IL-28R (fold induction)", "setting": "[1]", "value": 0.5}]}, {"molecule": "human CRF2-4-Fc homodimer soluble receptor (Fc fusion)", "values": [{"measurement": "Percent Inhibition of Ligand-induced ISRE Signaling by Soluble Receptors; 10 ng/ml ligand, 10 micrograms/ml soluble receptor; 293 HEK cells overexpressing zcytor19", "setting": "human IL-28A (human)", "value": 80, "unit": "%"}, {"measurement": "Percent Inhibition of Ligand-induced ISRE Signaling by Soluble Receptors; 10 ng/ml ligand, 10 micrograms/ml soluble receptor; 293 HEK cells overexpressing zcytor19", "setting": "human IL-29 (human)", "value": 79, "unit": "%"}, {"measurement": "Percent Inhibition of Ligand-induced ISRE Signaling by Soluble Receptors; 10 ng/ml ligand, 10 micrograms/ml soluble receptor; 293 HEK cells overexpressing zcytor19", "setting": "[2]", "value": 82, "unit": "%"}]}, {"molecule": "human zcytor19-Fc/human CRF2-4-Fc heterodimer soluble receptor (Fc fusion)", "values": [{"measurement": "Percent Inhibition of Ligand-induced ISRE Signaling by Soluble Receptors; 10 ng/ml ligand, 10 micrograms/ml soluble receptor; 293 HEK cells overexpressing zcytor19", "setting": "human IL-28A (human)", "value": 16, "unit": "%"}, {"measurement": "Percent Inhibition of Ligand-induced ISRE Signaling by Soluble Receptors; 10 ng/ml ligand, 10 micrograms/ml soluble receptor; 293 HEK cells overexpressing zcytor19", "setting": "human IL-29 (human)", "value": 16, "unit": "%"}, {"measurement": "Percent Inhibition of Ligand-induced ISRE Signaling by Soluble Receptors; 10 ng/ml ligand, 10 micrograms/ml soluble receptor; 293 HEK cells overexpressing zcytor19", "setting": "[2]", "value": 47, "unit": "%"}]}, {"molecule": "zcyto10 (from UniProt Q9NYY1 25-176) (ligand)", "values": [{"measurement": "ISRE-luciferase signaling, fold induction over medium alone; Zcyto10 at 125 ng/ml; 293 cells transfected with ISRE-Luc. and IL-28R (fold induction)", "setting": "[1]", "value": 1}]}, {"molecule": "B1", "values": [{"measurement": "Percent Inhibition of Ligand-induced ISRE Signaling by Soluble Receptors; 10 ng/ml ligand, 10 micrograms/ml soluble receptor; 293 HEK cells overexpressing zcytor19", "setting": "human IL-28A (human)", "value": 91, "unit": "%"}, {"measurement": "Percent Inhibition of Ligand-induced ISRE Signaling by Soluble Receptors; 10 ng/ml ligand, 10 micrograms/ml soluble receptor; 293 HEK cells overexpressing zcytor19", "setting": "human IL-29 (human)", "value": 103, "unit": "%"}, {"measurement": "Percent Inhibition of Ligand-induced ISRE Signaling by Soluble Receptors; 10 ng/ml ligand, 10 micrograms/ml soluble receptor; 293 HEK cells overexpressing zcytor19", "setting": "[2]", "value": 89, "unit": "%"}]}, {"molecule": "B2", "values": [{"measurement": "ISRE-luciferase signaling, fold induction over medium alone; IL-28B at 125 ng/ml; 293 cells transfected with ISRE-Luc. and IL-28R (fold induction)", "setting": "[1]", "value": 104}]}, {"molecule": "B3", "values": [{"measurement": "Percent Inhibition of Ligand-induced ISRE Signaling by Soluble Receptors; 10 ng/ml ligand, 10 micrograms/ml soluble receptor; 293 HEK cells overexpressing zcytor19", "setting": "human IL-28A (human)", "value": 92, "unit": "%"}, {"measurement": "Percent Inhibition of Ligand-induced ISRE Signaling by Soluble Receptors; 10 ng/ml ligand, 10 micrograms/ml soluble receptor; 293 HEK cells overexpressing zcytor19", "setting": "human IL-29 (human)", "value": 45, "unit": "%"}, {"measurement": "Percent Inhibition of Ligand-induced ISRE Signaling by Soluble Receptors; 10 ng/ml ligand, 10 micrograms/ml soluble receptor; 293 HEK cells overexpressing zcytor19", "setting": "[2]", "value": 90, "unit": "%"}]}]}
